Results published in the Human Domainome abundance scans (Beltran et al. 2025).
± gives the uncertainty stated by the source.

B1: Zinc finger MYM-type protein 6, residues 427 to 504; numbered along this chain, O95789 (parent)
chain: KLKCQHCNHLFATKPELLFYKGKMFLFCGKNCSDEYKKKNKVVAMCDYCKLQKIIKETVRFSGVDKPFCSEVCKFLSA

Variants of: B1
Assay: abundance fitness (aPCA) (normalised: wild type 0, dead -1); higher = more abundant; growth selection in yeast, the domain comes from the species named
Conditions: Homo sapiens
G22T gave an abundance fitness of -0.054 ± 0.049.
G22L gave an abundance fitness of -0.231 ± 0.056.
G22Q showed an abundance fitness of -0.011 ± 0.044.
G22C showed an abundance fitness of -0.063 ± 0.082.
N40C showed an abundance fitness of -0.135 ± 0.052.
In the case of N40E, the abundance fitness is reported as -0.071 ± 0.06.
H6L gave an abundance fitness of -0.104 ± 0.035.
With H6S the abundance fitness was -0.085 ± 0.037.
Work on H6P yielded an abundance fitness of -0.993 ± 0.081.
For K23A, the abundance fitness was -0.045 ± 0.032.
For K23T, the abundance fitness was -0.036 ± 0.076.
Variant K23C has an abundance fitness of -0.172 ± 0.065.
K23L showed an abundance fitness of -0.067 ± 0.045.
With K23D the abundance fitness was -0.09 ± 0.064.
With K23F the abundance fitness was -0.15 ± 0.1.
K23Q gave an abundance fitness of -0.097 ± 0.047.
For V59T, the abundance fitness was 0.204 ± 0.18.
In the case of V59D, the abundance fitness is reported as -0.246 ± 0.21.
V59C showed an abundance fitness of -0.452 ± 0.38.
V59Q gave an abundance fitness of -0.416 ± 0.12.
For V59E, the abundance fitness was -0.053 ± 0.13.
With V64E the abundance fitness was 0.09 ± 0.1.
V64F gave an abundance fitness of -0.448 ± 0.4.
For V64D, the abundance fitness was 0.474 ± 0.25.
With V64S the abundance fitness was -0.107 ± 0.1.
Work on V64T yielded an abundance fitness of 0.037 ± 0.18.
In the case of V64W, the abundance fitness is reported as -0.765 ± 0.18.
G63P gave an abundance fitness of -0.201 ± 0.31.
G63F gave an abundance fitness of -0.179 ± 0.47.
Variant G63V has an abundance fitness of -0.713 ± 0.2.
G63R showed an abundance fitness of -0.554 ± 0.13.
G63D showed an abundance fitness of 0.098 ± 0.14.
With C46V the abundance fitness was -0.308 ± 0.11.
With C46P the abundance fitness was -0.248 ± 0.2.
Variant C46R has an abundance fitness of -0.331 ± 0.099.
Work on C46S yielded an abundance fitness of -0.703 ± 0.17.
In the case of C46A, the abundance fitness is reported as -0.479 ± 0.12.
Work on Y48E yielded an abundance fitness of -0.861 ± 0.28.
Y48T gave an abundance fitness of -0.014 ± 0.34.
Y48N gave an abundance fitness of -0.184 ± 0.21.
For Y48M, the abundance fitness was -0.65 ± 0.17.
In the case of T13P, the abundance fitness is reported as -0.128 ± 0.044.
T13H gave an abundance fitness of -0.039 ± 0.052.
T13V showed an abundance fitness of -0.098 ± 0.042.
For L18V, the abundance fitness was -0.02 ± 0.037.
Work on L18R yielded an abundance fitness of -0.077 ± 0.03.
Variant Y36N has an abundance fitness of -0.172 ± 0.17.
Y36D gave an abundance fitness of -0.453 ± 0.088.
Y36Q gave an abundance fitness of -0.13 ± 0.056.
With Y36R the abundance fitness was -0.26 ± 0.028.
Variant Y36A has an abundance fitness of -0.074 ± 0.03.
Q5Y showed an abundance fitness of -0.057 ± 0.085.
Q5V showed an abundance fitness of -0.077 ± 0.029.
In the case of Q5K, the abundance fitness is reported as -0.194 ± 0.27.
Variant K56V has an abundance fitness of -0.071 ± 0.092.
K56E gave an abundance fitness of -0.49 ± 0.15.
Work on K56C yielded an abundance fitness of -0.658 ± 0.43.
In the case of C69W, the abundance fitness is reported as -0.71 ± 0.16.
With C69S the abundance fitness was -0.539 ± 0.15.
R60D gave an abundance fitness of 0.342 ± 0.21.
R60C gave an abundance fitness of -0.059 ± 0.1.
Work on R60Y yielded an abundance fitness of -0.423 ± 0.38.
R60G gave an abundance fitness of -0.215 ± 0.082.
With P67G the abundance fitness was 0.07 ± 0.1.
With P67L the abundance fitness was -0.354 ± 0.14.
P67T showed an abundance fitness of -0.349 ± 0.28.
P67R showed an abundance fitness of 0.042 ± 0.081.
With N8S the abundance fitness was 0.042 ± 0.036.
With N8W the abundance fitness was -0.154 ± 0.042.
In the case of N8I, the abundance fitness is reported as -0.168 ± 0.046.
N8L showed an abundance fitness of -0.015 ± 0.035.
N8T showed an abundance fitness of -0.067 ± 0.064.
In the case of N8P, the abundance fitness is reported as -0.129 ± 0.035.
With E16D the abundance fitness was -0.169 ± 0.12.
E16L showed an abundance fitness of -0.139 ± 0.036.
Variant E16G has an abundance fitness of -0.279 ± 0.031.
Work on E16S yielded an abundance fitness of -0.146 ± 0.043.
For E16Q, the abundance fitness was -0.03 ± 0.041.
Variant E16H has an abundance fitness of -0.307 ± 0.19.
For L26V, the abundance fitness was 0.037 ± 0.031.
L26N showed an abundance fitness of 0.097 ± 0.058.
For L26T, the abundance fitness was 0.035 ± 0.048.
Work on L26W yielded an abundance fitness of -0.053 ± 0.032.
With L26P the abundance fitness was -0.03 ± 0.04.
For L26A, the abundance fitness was 0.05 ± 0.028.
With L26S the abundance fitness was 0.054 ± 0.032.
With H9F the abundance fitness was -0.153 ± 0.06.
H9Y showed an abundance fitness of 0.015 ± 0.49.
H9A gave an abundance fitness of 0.005 ± 0.032.
Work on H9N yielded an abundance fitness of -0.011 ± 0.078.
H9K showed an abundance fitness of 0.034 ± 0.053.
Variant H9R has an abundance fitness of 0.037 ± 0.029.
Variant H9Q has an abundance fitness of 0.049 ± 0.041.
G29R gave an abundance fitness of -0.104 ± 0.029.
In the case of G29S, the abundance fitness is reported as -0.123 ± 0.038.
G29W gave an abundance fitness of -0.602 ± 0.041.
Variant C28D has an abundance fitness of -0.352 ± 0.061.
In the case of C28S, the abundance fitness is reported as -0.969 ± 0.11.
Variant C28V has an abundance fitness of -1.1 ± 0.11.
Variant C28Q has an abundance fitness of -1.28 ± 0.48.
In the case of C28W, the abundance fitness is reported as -1 ± 0.082.
Work on P15K yielded an abundance fitness of -0.038 ± 0.039.
For P15F, the abundance fitness was -0.478 ± 0.085.
P15I gave an abundance fitness of -0.412 ± 0.16.
Work on Q52L yielded an abundance fitness of -0.128 ± 0.093.
Variant C4E has an abundance fitness of -0.81 ± 0.067.
C4H showed an abundance fitness of -0.649 ± 0.5.
For C4V, the abundance fitness was -0.758 ± 0.045.
Work on C4L yielded an abundance fitness of -0.698 ± 0.071.
C4D showed an abundance fitness of -0.879 ± 0.25.
C4S gave an abundance fitness of -0.702 ± 0.091.
Work on M24E yielded an abundance fitness of 0.111 ± 0.036.
In the case of M24Q, the abundance fitness is reported as 0.101 ± 0.039.
Work on M24R yielded an abundance fitness of 0.13 ± 0.029.
For M24D, the abundance fitness was 0 ± 0.061.
For M24P, the abundance fitness was 0.034 ± 0.041.
M24I gave an abundance fitness of 0.19 ± 0.38.
Variant M24A has an abundance fitness of -0.083 ± 0.039.
I55P showed an abundance fitness of 0.281 ± 0.2.
In the case of I55Q, the abundance fitness is reported as -0.185 ± 0.18.
For I55G, the abundance fitness was 0.16 ± 0.063.
I55V showed an abundance fitness of 0.32 ± 0.07.
I55A gave an abundance fitness of 0.243 ± 0.082.
F75S showed an abundance fitness of 0.48 ± 0.14.
For F75R, the abundance fitness was 0.499 ± 0.063.
Variant F75C has an abundance fitness of 0.677 ± 0.09.
Work on F75P yielded an abundance fitness of 0.039 ± 0.12.
In the case of F75V, the abundance fitness is reported as 0.256 ± 0.063.
For C32P, the abundance fitness was -1.05 ± 0.14.
In the case of C32V, the abundance fitness is reported as -0.919 ± 0.1.
With C32G the abundance fitness was -1.02 ± 0.069.
Work on K1C yielded an abundance fitness of -0.147 ± 0.048.
K1G showed an abundance fitness of -0.229 ± 0.033.
In the case of K1F, the abundance fitness is reported as -0.697 ± 0.34.
K1E gave an abundance fitness of -0.104 ± 0.046.
For K1H, the abundance fitness was -0.209 ± 0.067.
K1S showed an abundance fitness of -0.131 ± 0.076.
S77Y gave an abundance fitness of -0.09 ± 0.28.
In the case of S77C, the abundance fitness is reported as -0.104 ± 0.22.
Variant S77L has an abundance fitness of -1.36 ± 0.4.
With S77N the abundance fitness was -0.434 ± 0.25.
S77E gave an abundance fitness of -0.615 ± 0.22.
Work on S77A yielded an abundance fitness of -0.129 ± 0.097.
F19G gave an abundance fitness of -0.053 ± 0.03.
Variant F19M has an abundance fitness of -0.196 ± 0.064.
In the case of A12M, the abundance fitness is reported as -0.105 ± 0.047.
A12K gave an abundance fitness of 0.008 ± 0.049.
In the case of A12D, the abundance fitness is reported as -0.047 ± 0.033.
Work on A12S yielded an abundance fitness of -0.072 ± 0.041.
For K38V, the abundance fitness was -0.018 ± 0.032.
With K38P the abundance fitness was -0.163 ± 0.042.
For K38A, the abundance fitness was 0.023 ± 0.029.
K38D gave an abundance fitness of -0.114 ± 0.068.
L10F showed an abundance fitness of 0.107 ± 0.14.
In the case of L10A, the abundance fitness is reported as 0.051 ± 0.033.
Work on L10R yielded an abundance fitness of 0.063 ± 0.029.
With L10Y the abundance fitness was -0.026 ± 0.053.
K30S showed an abundance fitness of -0.049 ± 0.032.
Variant K30C has an abundance fitness of -0.24 ± 0.059.
With K30D the abundance fitness was -0.138 ± 0.043.
For T58D, the abundance fitness was 0.779 ± 0.11.
Work on T58W yielded an abundance fitness of -0.669 ± 0.28.
K50V gave an abundance fitness of -0.96 ± 0.13.
K50H showed an abundance fitness of -0.427 ± 0.43.
Variant C73G has an abundance fitness of -0.638 ± 0.12.
C73E gave an abundance fitness of -0.885 ± 0.18.
C73A showed an abundance fitness of -0.627 ± 0.12.
